Measured values as given in US20240199755A1, “ANTAGONISTS AND AGONISTS OF THE TRANSFERRIN RECEPTOR-2 FOR USE IN THE TREATMENT OF DISEASES OF THE BONE” (Kymab Limited, priority 2018, published 2024).

Molecular target: T1, Tfr2-ECD (Mus musculus, UniProt Q9JKX3)
T1 construct: full-length extracellular domain (ECD, aa 103-798) of murine Tfr2; His (N); MBP (N); c3 (protease site between MBP and ECD) (N); made in house; host or cells: Sf9 insect cells (baculovirus, pOCC211-Tfr2-ECD)
T1 sequence (Q9JKX3 103-798): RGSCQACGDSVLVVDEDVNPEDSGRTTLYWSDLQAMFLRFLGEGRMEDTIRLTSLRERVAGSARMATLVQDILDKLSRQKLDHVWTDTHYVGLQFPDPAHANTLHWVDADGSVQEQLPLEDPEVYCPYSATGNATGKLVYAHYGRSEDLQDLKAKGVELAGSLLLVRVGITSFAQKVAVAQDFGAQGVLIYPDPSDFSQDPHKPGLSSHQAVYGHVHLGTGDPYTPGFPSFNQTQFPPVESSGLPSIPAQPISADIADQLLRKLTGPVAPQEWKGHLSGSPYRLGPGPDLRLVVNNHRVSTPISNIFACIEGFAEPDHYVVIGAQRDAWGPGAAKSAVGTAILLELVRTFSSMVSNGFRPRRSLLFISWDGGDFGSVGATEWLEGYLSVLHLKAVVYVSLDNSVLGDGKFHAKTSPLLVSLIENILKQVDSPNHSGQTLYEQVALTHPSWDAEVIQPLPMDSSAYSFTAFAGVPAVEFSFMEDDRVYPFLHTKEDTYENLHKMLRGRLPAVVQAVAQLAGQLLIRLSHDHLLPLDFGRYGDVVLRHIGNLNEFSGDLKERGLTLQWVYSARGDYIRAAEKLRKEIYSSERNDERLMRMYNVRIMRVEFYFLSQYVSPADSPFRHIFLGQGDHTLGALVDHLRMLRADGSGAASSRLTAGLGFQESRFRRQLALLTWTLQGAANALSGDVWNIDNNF
Test: SPR binding of holo-Tf and BMP receptors to Tfr2-ECD immobilized on the sensor chip
Set-up: species or system murine
Settings: 200 nM BMP receptors; binding level normalized to molecular weight
Method: For this purpose, Tfr2-ECD is immobilized on a Series S Sensor Chip C1 (GE Healthcare), by means of coupling the amino groups at 25° C. The carboxyl groups on the chip surface are activated for 7 minutes using a mixture of 196 mM 1-ethyl-3-(3-dimethylaminopropyl) carbodiimide-hydrochloride and 50 mM n-hydroxysuccinimide at a flow rate of 10 μl/min. Subsequently, 5 μg/ml Tfr2-ECD, diluted with sodium acetate buffer (pH 4.5), is injected at a flow rate of 5 μl/min up to a relative occupancy of 200 RU. Non-reacted groups are inactivated by injecting 1 M thanolamine-HCl (pH 8.5) for 7 minutes at a flow rate of 10 μl/min. In order to prepare a reference surface, the same procedure is carried out but without Tfr2-ECD being injected.
The binding assays are carried out at 37° C. at a flow rate of 30 μl/min. Each analyte is diluted by a running buffer (HBS-P, pH 7.4 together with 50 nM FeCl3). […] The values of the binding level are read out, relative to the baseline, 10 s before the end of the injection and are corrected with respect to the molar mass. […] The binding parameters are determined using the Biacore™ T100 evaluation software 2.03. […]
For binding analysis, an injection of analyte for 240 s or 300 s over a Tfr2-ECD surface was followed by 1000 s dissociation. The values of the binding levels were recorded from referenced signals 10 s before the end of injection relative to baseline response. […]

B1: BMPR-II: type II BMP receptor (R&D Systems) (protein, UniProt Q13873 27-1038, looked up)
Bone morphogenetic protein …: SQNQERLCAFKDPYQQDLGIGESRISHENGTILCSKGSTCYGLWEKSKGDINLVKQGCWSHIGDPQECHYEECVVTTTPPSIQNGTYRFCCCSTDLCNVNFTENFPPPDTTPLSPPHSFNRDETIIIALASVSVLAVLIVALCFGYRMLTGDRKQGLHSMNMMEAAASEPSLDLDNLKLLELIGRGRYGAVYKGSLDERPVAVKVFSFANRQNFINEKNIYRVPLMEHDNIARFIVGDERVTADGRMEYLLVMEYYPNGSLCKYLSLHTSDWVSSCRLAHSVTRGLAYLHTELPRGDHYKPAISHRDLNSRNVLVKNDGTCVISDFGLSMRLTGNRLVRPGEEDNAAISEVGTIRYMAPEVLEGAVNLRDCESALKQVDMYALGLIYWEIFMRCTDLFPGESVPEYQMAFQTEVGNHPTFEDMQVLVSREKQRPKFPEAWKENSLAVRSLKETIEDCWDQDAEARLTAQCAEERMAELMMIWERNKSVSPTVNPMSTAMQNERNLSHNRRVPKIGPYPDYSSSSYIEDSIHHTDSIVKNISSEHSMSSTPLTIGEKNRNSINYERQQAQARIPSPETSVTSLSTNTTTTNTTGLTPSTGMTTISEMPYPDETNLHTTNVAQSIGPTPVCLQLTEEDLETNKLDPKEVDKNLKESSDENLMEHSLKQFSGPDPLSSTSSSLLYPLIKLAVEATGQQDFTQTANGQACLIPDVLPTQIYPLPKQQNLPKRPTSLPLNTKNSTKEPRLKFGSKHKSNLKQVETGVAKMNTINAAEPHVVTVTMNGVAGRNHSVNSHAATTQYANGTVLSGQTTNIVTHRAQEMLQNQFIGEDTRLNINSSPDEHEPLLRREQQAGHDEGVLDRLVDRRERPLEGGRTNSNNNNSNPCSEQDVLAQGVPSTAADPGPSKPRRAQRPNSLDLSATNVLDGSSIQIGESTQDGKSGSGEKIKKRVKTPYSLKRWRPSTWVISTESLDCEVNNNGSNRAVHSKSSTAVYLAEGGTATTMVSKDIGMNCL
- Binding response of BMPRs to Tfr2-ECD compared with BMPs: weaker than BMPs
